According to paper PMC3494461:

Substrate: CC(=O)C(=O)O
Assay: purified protein
Type: biochemical, Escherichia coli
Details: 37 °C, pyruvate (1–90 mM) as donor and acceptor, no D-GAP

B1: DXP synthase (Escherichia coli K-12) (protein)
chain: SFDIAKYPTLALVDSTQELRLLPKESLPKLCDELRRYLLDSVSRSSGHFASGLGTVELTVALHYVYNTPFDQLIWDVGHQAYPHKILTGRRDKIGTIRQKGGLHPFPWRGESEYDVLSVGHSSTSISAGIGIAVAAEKEGKNRRTVCVIGDGAITAGMAFEAMNHAGDIRPDMLVILNDNEMSISENVGALNNHLAQLLSGKLYSSLREGGKKVFSGVPPIKELLKRTEEHIKGMVVPGTLFEELGFNYIGPVDGHDVLGLITTLKNMRDLKGPQFLHIMTKKGRGYEPAEKDPITFHAVPKFDPSSGCLPKSSGGLPSYSKIFGDWLCETAAKDNKLMAITPAMREGSGMVEFSRKFPDRYFDVAIAEQHAVTFAAGLAIGGYKPIVAIYSTFLQRAYDQVLHDVAIQKLPVLFAIDRAGIVGADGQTHQGAFDLSYLRCIPEMVIMTPSDENECRQMLYTGYHYNDGPSAVRYPRGNAVGVELTPLEKLPIGKGIVKRRGEKLAILNFGTLMPEAAKVAESLNATLVDMRFVKPLDEALILEMAASHEALVTVEENAIMGGAGSGVNEVLMAHRKPVPVLNIGLPDFFIPQGTQEEMRAELGLDAAGMEAKIKAWLA
- K0.5: 51.0 ± 1.7 mM
